Data on one variant can be found in IntAct's records for PubMed 15161910.

To fix the notation:
B1: Serine/threonine-protein kinase Nek2 (Homo sapiens), P51955 (parent)
chain: MPSRAEDYEVLYTIGTGSYGRCQKIRRKSDGKILVWKELDYGSMTEAEKQMLVSEVNLLRELKHPNIVRYYDRIIDRTNTTLYIVMEYCEGGDLASVITKGTKERQYLDEEFVLRVMTQLTLALKECHRRSDGGHTVLHRDLKPANVFLDGKQNVKLGDFGLARILNHDTSFAKTFVGTPYYMSPEQMNRMSYNEKSDIWSLGCLLYELCALMPPFTAFSQKELAGKIREGKFRRIPYRYSDELNEIITRMLNLKDYHRPSVEEILENPLIADLVADEQRRNLERRGRQLGEPEKSQDSSPVLSELKLKEIQLQERERALKAREERLEQKEQELCVRERLAEDKLARAENLLKNYSLLKERKFLSLASNPELLNLPSSVIKKKVHFSGESKENIMRSENSESQLTSKSKCKDLKKRLHAAQLRAQALSDIEKNYQLKSRQILGMR
partner: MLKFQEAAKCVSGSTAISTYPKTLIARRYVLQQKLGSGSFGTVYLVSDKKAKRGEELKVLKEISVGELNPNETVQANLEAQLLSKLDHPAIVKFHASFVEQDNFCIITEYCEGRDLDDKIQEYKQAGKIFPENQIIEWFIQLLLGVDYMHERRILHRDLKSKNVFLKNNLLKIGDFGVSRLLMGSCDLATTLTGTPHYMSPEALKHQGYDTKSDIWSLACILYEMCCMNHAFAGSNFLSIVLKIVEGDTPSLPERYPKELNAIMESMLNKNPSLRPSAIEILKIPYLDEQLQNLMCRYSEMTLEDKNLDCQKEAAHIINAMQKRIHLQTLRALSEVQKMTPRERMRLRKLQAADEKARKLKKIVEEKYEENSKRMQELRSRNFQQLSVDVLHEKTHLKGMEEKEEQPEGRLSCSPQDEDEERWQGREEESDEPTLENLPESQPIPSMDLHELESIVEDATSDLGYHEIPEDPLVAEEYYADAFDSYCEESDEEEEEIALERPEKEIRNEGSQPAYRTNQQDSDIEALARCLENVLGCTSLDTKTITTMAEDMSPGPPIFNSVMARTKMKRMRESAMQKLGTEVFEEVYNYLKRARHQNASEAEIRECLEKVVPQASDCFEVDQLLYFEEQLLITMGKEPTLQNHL

Variants of B1 are the subject of one experiment. The settings on record: with nek11_human NEK11, Q8NG66.
MPSRAEDYEVLYTIGTGSYGRCQKIRRKSDGKILVWRELDYGSMTEAEKQMLVSEVNLLRELKHPNIVRYYDRIIDRTNTTLYIVMEYCEGGDLASVITKGTKERQYLDEEFVLRVMTQLTLALKECHRRSDGGHTVLHRDLKPANVFLDGKQNVKLGDFGLARILNHDTSFAKTFVGTPYYMSPEQMNRMSYNEKSDIWSLGCLLYELCALMPPFTAFSQKELAGKIREGKFRRIPYRYSDELNEIITRMLNLKDYHRPSVEEILENPLIADLVADEQRRNLERRGRQLGEPEKSQDSSPVLSELKLKEIQLQERERALKAREERLEQKEQELCVRERLAEDKLARAENLLKNYSLLKERKFLSLASNPELLNLPSSVIKKKVHFSGESKENIMRSENSESQLTSKSKCKDLKKRLHAAQLRAQALSDIEKNYQLKSRQILGMR [K37R]: the “effect of a mutation on the interaction” value is “decreasing interaction”.

In a further experiment the parent is B1. The settings on record: with nek11_human NEK11, Q8NG66. This is another data set of the same source.
Turning to MPSRAEDYEVLYTIGTGSYGRCQKIRRKSDGKILVWRELDYGSMTEAEKQMLVSEVNLLRELKHPNIVRYYDRIIDRTNTTLYIVMEYCEGGDLASVITKGTKERQYLDEEFVLRVMTQLTLALKECHRRSDGGHTVLHRDLKPANVFLDGKQNVKLGDFGLARILNHDTSFAKTFVGTPYYMSPEQMNRMSYNEKSDIWSLGCLLYELCALMPPFTAFSQKELAGKIREGKFRRIPYRYSDELNEIITRMLNLKDYHRPSVEEILENPLIADLVADEQRRNLERRGRQLGEPEKSQDSSPVLSELKLKEIQLQERERALKAREERLEQKEQELCVRERLAEDKLARAENLLKNYSLLKERKFLSLASNPELLNLPSSVIKKKVHFSGESKENIMRSENSESQLTSKSKCKDLKKRLHAAQLRAQALSDIEKNYQLKSRQILGMR [K37R], the “effect of a mutation on the interaction” value was “increasing interaction”.
